# Experimental data: US11633499B2, “Anti-TMEM-180 antibody, anticancer drug and cancer testing method” (NATIONAL CANCER CENTER JAPAN, priority 2016, dated 2023)
# Where a chain is given by its changes, count along the chain named. In names and notes the source's numbering stands.
# T1: exosomes presenting TMEM-180 from DLD-1 cell line (Homo sapiens, UniProt Q14CX5)
# T1 construct: endogenous in cells; host or cells: DLD-1 colon cancer cell line (parent / wild type); culture supernatant exosomes in A20
# T1 sequence (Q14CX5 1-517): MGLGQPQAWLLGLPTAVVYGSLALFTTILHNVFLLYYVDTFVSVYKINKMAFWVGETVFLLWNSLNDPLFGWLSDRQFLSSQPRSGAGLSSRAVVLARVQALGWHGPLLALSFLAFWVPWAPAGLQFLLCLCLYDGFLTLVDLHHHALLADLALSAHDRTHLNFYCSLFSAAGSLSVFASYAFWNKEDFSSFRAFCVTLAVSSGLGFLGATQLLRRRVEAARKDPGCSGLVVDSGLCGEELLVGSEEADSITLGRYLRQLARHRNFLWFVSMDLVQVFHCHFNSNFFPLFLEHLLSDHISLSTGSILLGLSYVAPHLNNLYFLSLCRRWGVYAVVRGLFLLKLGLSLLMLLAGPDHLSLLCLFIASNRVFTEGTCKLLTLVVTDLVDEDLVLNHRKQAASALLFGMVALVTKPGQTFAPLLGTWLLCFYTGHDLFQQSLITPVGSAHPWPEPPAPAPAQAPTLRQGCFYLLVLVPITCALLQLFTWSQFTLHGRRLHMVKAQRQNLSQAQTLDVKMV
# B1: 1361-7 clone: variant having an amino acid substitution S82A in the 1361 antibody (antibody, V domains shown)
# VH: EVQLVESGGGLVQPGRSLKLSCVASGFTFNNYWMTWIRQAPGKGLEWVASITNTGGSTYYPDAVKGRFTISRDYAKSTLYLQMNSLRSEDTATYYCTRAGYSSYPDYFDYWGQGVMLTVSS
# VL: NIQMTQSPSLLSASVGDRVTLSCKAGQNIYNYLAWYQQKLGEAPKLLIYNANSLQTGIPSRFSGSGSGTDFTLTISSLQPEDVATYFCQQYSSGWTFGGGTKLELK
# B2: clone 1361: rat IgG anti-TMEM-180 monoclonal antibody; variable regions SEQ ID NOs: 70 and 71 (antibody, V domains shown)
# VH: MDIRLSLVFLVLFIKGVQCEVQLVESGGGLVQPGRSLKLSCVASGFTFNNYWMTWIRQAPGKGLEWVASITNTGGSTYYPDSVKGRFTISRDYAKSTLYLQMNSLRSEDTATYYCTRAGYSSYPDYFDYWGQGVMLTVSS
# VL: MMAPVQLLGLLLLWLPAMRCNIQMTQSPSLLSASVGDRVTLSCKAGQNIYNYLAWYQQKLGEAPKLLIYNANSLQTGIPSRFSGSGSGTDFTLTISSLQPEDVATYFCQQYSSGWTFGGGTKLELK
# B3: Variant 1: Fc-modified clone of 1361-5 with triple substitutions S239D/A330L/1332E in the Fc region (antibody)
# heavy: EVQLVESGGGLVQPGRSLKLSCVASGFTFNNYWMTWIRQAPGKGLEWVASITNTGGSTAYPDSVKGRFTISRDYAKSTLYLQMNSLRSEDTATYYCTRAGYSSYPDYFDYWGQGVMLTVSSASTKGPSVFPLAPSSKSTSGGTAALGCLVKDYFPEPVTVSWNSGALTSGVHTFPAVLQSSGLYSLSSVVTVPSSSLGTQTYICNVNHKPSNTKVDKKVEPKSCDKTHTCPPCPAPELLGGPDVFLFPPKPKDTLMISRTPEVTCVVVDVSHEDPEVKFNWYVDGVEVHNAKTKPREEQYNSTYRVVSVLTVLHQDWLNGKEYKCKVSNKALPLPEEKTISKAKGQPREPQVYTLPPSRDELTKNQVSLTCLVKGFYPSDIAVEWESNGQPENNYKTTPPVLDSDGSFFLYSKLTVDKSRWQQGNVFSCSVMHEALHNHYTQKSLSLSPGK
# light: MMAPVQLLGLLLLWLPAMRCNIQMTQSPSLLSASVGDRVTLSCKAGQNIYNYLAWYQQKLGEAPKLLIYNANSLQTGIPSRFSGSGSGTDFTLTISSLQPEDVATYFCQQYSSGWTFGGGTKLELKRTVAAPSVFIFPPSDEQLKSGTASVVCLLNNFYPREAKVQWKVDNALQSGNSQESVTEQDSKDSTYSLSSTLTLSKADYEKHKVYACEVTHQGLSSPVTKSFNRGEC
# B4: Variant 2: Fc-modified clone of 1361-5 with triple substitutions S239D/1332E/E333A in the Fc region (antibody)
# heavy: B3 heavy with L334A, E337A
# light: B3 light
# B5: clone 669: rat IgM anti-TMEM-180 monoclonal antibody; variable regions SEQ ID NOs: 78 and 79 (antibody, V domains shown)
# VH: MGWICIIFLVATATGVHSQVKLLQSGAALVKPGASVKMSCKASGYTFTDYWVSWVKQSHGKSLEWIGEIYPNSGATNFNENFKGKATLTVDKSTSTAYMELSRLTSEDSAIYYCTRDGTMGIAYYFDYWGQGVMVTVSS
# VL: MMAAVQLLGLLLLWVPAMRCDIQMTQSPSFLSASVGDRVTINCKASQNINRYLNWYQQKLGEAPKLLIYNANSLQTGIPSRFSGSGSGTDFTLTISSLQPEDVATYFCLQHNSWPYTFGAGTKLELK
# Tests used:
# [1] = system: normal stroma; assay: Reactivity to normal stroma; format: binding; conditions: compared with the 1361 antibody
# [2] = system: cell lines derived from cancers (ATCC and JCRB); assay: Reactivity of antibodies to cancer-derived cell lines by FACS (Table 23); format: binding
# Protocol: Cancer cells targeted for measurement were cultured in medium and then added to a V-bottom 96-well plate (Corning Incorporated) to a concentration of 1×10^5 cells/well. The plate was centrifuged for 3 minutes at 440×g and 4° C. followed by removing the supernatant, adding antibody-producing hybridoma culture supernatant or antibody solution to the cell pellet at 50 μL/well and suspending therein. After allowing to react for 45 minutes on ice, the plate was washed three times with a mixture of 0.1% BSA, 2 mM EDTA and PBS at 200 μL/well. The supernatant was removed and secondary antibody was added to the cell pellet at 50 μL/well followed by suspending the cells therein. ALEXAFLUOR 647@ (fluorescent compound) goat anti-rat IgG (H-L) (Life Technologies Corporation) was used for the secondary antibody after diluting 400-fold with a mixture of 0.1% BSA, 2 mM EDTA and PBS. After allowing to react for 45 minutes on ice, the plate was washed three times with a mixture of 0.1% BSA, 2 mM EDTA and PBS at 200 μL/well. After removing the supernatant, 50 ng/mL of propidium iodide, 0.1% BSA, 2 mM EDTA and PBS were added to the cell pellet at 250 µL/well followed by suspending therein. The cells stained in this manner were measured using a flow cytometer such as the Guava easyCyte 8HT (Merck Millipore Corporation) followed by analysis of the resulting data using FlowJO (Tomy Digital Biology Co., Ltd.). FACS analysis was carried out using colon cancer, brain tumor and hematologic cancer.
# Cancer-detection rates were tested using monoclonal antibodies (the 669 antibody, 1052 antibody, 1105 antibody, and 1361 antibody).
# In this Example, the reactivity of the antibodies to the cell lines derived from cancers which were obtained from ATCC and JCRB was analyzed by FACS.
# [3] = molecular target: T1, exosomes presenting TMEM-180 from DLD-1 cell line; assay: Detection of TMEM-180 exosomes in culture supernatant (immobilized anti-TMEM-180 antibody, anti-CD9 detection); format: binding; conditions: immobilized antibody 5 μg/mL; detection with anti-CD9 antibody; FIG. 18
# Excerpt: Thus, the inventors constructed a system for detecting exosomes in the culture supernatant. In this system, an anti-TMEM-180 antibody was immobilized on the surface of the plate, and exosomes containing TMEM-180 which were bound to the immobilized antibody were detected with an anti-CD9 antibody which CD9 is an exosome maker. The DLD-1 cell line (also referred to as “wild type DLD-1 cell line”) was used as cells. The TMEM-180 knockdown DLD-1 cell line and K562 cell line were used as negative controls.
# Specifically, an anti-TMEM-180 antibody was diluted with phosphate buffer such that the concentration will be 5 μg/mL, and then added to a 96 well plate (Maxisorp #442404, Thermo Fisher co., Ltd.) at 50 μL/well. The immobilization reaction was performed by incubation for 2 hours at room temperature or for overnight at 4° C. The plate after the immobilization was washed three times with 300 μL/well of a plate washing solution. The plate was blocked with 200 μL/well of a blocking agent (1% BSA/TBS-T), and allowed to stand for 1 hour at room temperature or for overnight at 4° C. […] Then, the optical density at 450 nm was measured with a plate reader.
# [4] = system: normal tissues (skin, brain, small intestine, liver, heart, lung, kidney); assay: Immune histochemistry of normal human tissues; format: binding
# Protocol: The paraffin sections were prepared from the tissue specimens in the same way as shown in Example 6 according to a routine procedure. The prepared sections were subjected to reactions with 1 μg/mL of one of the above antibodies. An HRP-labelled anti rat antibody was used as a secondary antibody, which emitted light with DAB. The observation was performed after hematoxylin staining.
# [5] = system: cell lines derived from cancers (ATCC and JCRB); assay: Reactivity of antibodies to cancer-derived cell lines by FACS (Table 23); format: binding; remark: listed apart in the source
# [6] = system: wild type DLD-1 cells; assay: ADCC activity (51Cr release, TK176V effector cells), wild type DLD-1; format: cell-based, human; conditions: ET ratio 40; 4 hours; 0.064 to 1,000 ng/mL; FIGS. 20A to 20D
# Protocol: Specifically, TK176V (a natural killer cell line stably expressing FcγRIII) was used as an effector cell, which was obtained from Chemicals Evaluation and Research Institute, Japan. The wild type DLD-1 cell line was used as a target cell.
# T1 76V was cultured in RPM11640 containing 10 ng/mL IL-2 and 10% FBS. For passages, the medium was diluted with a fresh medium every 2 to 3 days. In the passage, the cells were detached by a trypsin treatment and then suspended in a fresh medium to be plated on a dish every 2 to 3 days.
# The measurement of the ADCC activity was performed as described below.
# First, the amount of 51Cr release was measured when only the target cells were cultured in medium as a negative control, which is referred to as “Spontaneous release measurement”. The amount of 51 Cr release was measured when the all target cells were damaged by adding 0.1% TRITON™ (surfactant) X-100, which is referred to as “Max release measurement.”
# 1) Adding DLD-1 WT labelled with 50 μCi of ^51Cr to a U-bottom, 96 well plate at 5,000 cells/50 μL/well.
# 2) Adding TK176V at 200,000 cells/50 μL/well (ET ratio: 40): A medium was added at 50 μL/well to the well for Spontaneous release measurement and the well for Max release measurement. […]
# [7] = system: Wildtype DLD-1 cells; assay: Internalization of the antibody; format: cell-based, human; conditions: 488-labelled antibody; 37° C.; 1, 3 or 6 hours; FIG. 25
# Protocol: Wildtype DLD-1 cells were plated on a 96-well plate at 5,000 cells/well. The plate was incubated at 37° C. for 18 hours. After washing, a 488-labelled 669 antibody was added to the wells at 2 μL/well and was incubated at 37° C. for certain hours (1 hour, 3 hours, or 6 hours). After the wells were washed three times, a rabbit anti 488 antibody was added at 2 μL/well to stand still at 4° C. for 30 minutes to quench the fluorescence derived from the antibodies binding to the cell surface. After the wells were washed three times, 4% PFA was added at 100 μL/well to stand still at room temperature for 10 minutes. After the wells were washed three times, DAPI (1/500 dilution) was added to the wells at 100 μL/well to stand still at room temperature for 5 minutes. After the wells were washed three times, the wells were subjected to photographing or Array Scan analysis.
molecule,measurement,setting,value
B1,reactivity to normal stroma,[1],almost the same as that of the 1361 antibody
B2,"Detection Sensitivity of Cancers, P/N",[2]; Cancer Type: Brain,(7/7)
same,"Detection Sensitivity of Cancers, P/N",[2]; Cancer Type: Colon,(7/10)
same,"Detection Sensitivity of Cancers, Percentage (%)",[2]; Cancer Type: Colon,70%
same,"recognition of cancers, summary of Table 23","[2]; comparison of 1361, 669, 1052, 1105",highest sensitivity
same,detection of exosomes presenting TMEM-180 in DLD-1 culture supernatant,[3],successfully detected
same,"staining of normal tissues from skin, brain, small intestine, liver, heart, lung and kidney","[4]; 1 μg/mL, paraffin sections",negative
same,reactivity to normal skin tissues,[4]; FIG. 13,low reactivity
same,"Detection Sensitivity of Cancers, P/N",[5]; Cancer Type: Bladder,(3/4)
same,"Detection Sensitivity of Cancers, Percentage (%)",[5]; Cancer Type: Bladder,75%
same,"Detection Sensitivity of Cancers, Percentage (%)",[5]; Cancer Type: Brain,100%
same,"Detection Sensitivity of Cancers, P/N",[5]; Cancer Type: Brest,(2/6)
same,"Detection Sensitivity of Cancers, Percentage (%)",[5]; Cancer Type: Brest,33%
same,"Detection Sensitivity of Cancers, P/N",[5]; Cancer Type: Gastric,(5/8)
same,"Detection Sensitivity of Cancers, Percentage (%)",[5]; Cancer Type: Gastric,63%
same,"Detection Sensitivity of Cancers, P/N",[5]; Cancer Type: Kidney,(3/3)
same,"Detection Sensitivity of Cancers, Percentage (%)",[5]; Cancer Type: Kidney,100%
same,"Detection Sensitivity of Cancers, P/N",[5]; Cancer Type: Pancreas,(9/9)
same,"Detection Sensitivity of Cancers, Percentage (%)",[5]; Cancer Type: Pancreas,100%
same,"Detection Sensitivity of Cancers, P/N",[5]; Cancer Type: Prostate,(2/3)
same,"Detection Sensitivity of Cancers, Percentage (%)",[5]; Cancer Type: Prostate,67%
B3,ADCC activity against wild type DLD-1 cells,[6],equal to or stronger than that of the 1361-5 antibody
B4,ADCC activity against wild type DLD-1 cells,[6],equal to or stronger than that of the 1361-5 antibody
B5,"Detection Sensitivity of Cancers, P/N",[2]; Cancer Type: Colon,(3/10)
same,"Detection Sensitivity of Cancers, Percentage (%)",[2]; Cancer Type: Colon,30%
same,detection of exosomes presenting TMEM-180 in DLD-1 culture supernatant,[3],successfully detected
same,"Detection Sensitivity of Cancers, P/N",[5]; Cancer Type: Pancreas,(3/9)
same,"Detection Sensitivity of Cancers, Percentage (%)",[5]; Cancer Type: Pancreas,33%
same,internalization into cells,[7],concentrated at a high concentration in the cells
